Two molecules from patent US20240317885A1 (published 2024) can be followed below.

Experiment [1] has as its target T1, Tax interacting protein-1 (TIP1), recombinant / purified protein (UniProt O14907 1-124).
T1 chain: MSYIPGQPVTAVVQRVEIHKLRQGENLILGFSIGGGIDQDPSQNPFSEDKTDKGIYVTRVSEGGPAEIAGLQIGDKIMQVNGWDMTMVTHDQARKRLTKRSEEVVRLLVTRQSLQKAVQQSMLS
Nature of the experiment: ELISA.

Experiment [2] deals with T1, Tax interacting protein-1 (TIP1), …. Put plainly: ELISA. On the technique in general: An ELISA detects its analyte on a solid surface through an enzyme-linked reagent.
The target is the same in experiment [3]. Put plainly: Biacore. (In general: Surface plasmon resonance follows binding to a sensor surface in real time, without labels.)
Experiment [4] has the same target. Nature of the experiment: Biacore.
The target in another experiment is v127. Nature of the experiment: Biacore.
In a further experiment the target is v144. Put plainly: Biacore.

B1: human IgG1 v111 (antibody, V domains shown)
VH: QMQLVQSGAEVKKPGESLKISCKGSGYSFTSNWIGWVRQMPGKGLEWMGIIYPGDSDTRYSPSFQGQVTISADKSISTAYLQWSSLKASDTAMYYCARQQGHDAFDIWGQGTTVTVSS
VL: SYELTQPPSVSVSPGQTARITCSGDALPKRYAYWYRQKPGQAPVLVIQKDTERPSGIPERFSGSISGTTVTLTISGVQAEDEADYYCQSTDSSASYAVFGGGTKLTVL
The term Kd denotes the equilibrium constant for the complex coming apart. The term EC50 denotes the midpoint of the concentration-response curve. As to B1, the Kd stood at 0.124 nM in experiment [1], 0.107 nM in experiment [3] and 0.107 nM in experiment [4]. Besides, the concentration giving a half-maximal response (EC50) in experiment [2] was determined as 0.164 nM.

B2: TIP1 (other)
chain: MSYIPGQPVTAVVQRVEIHKLRQGENLILGFSIGGGIDQDPSQNPFSEDKTDKGIYVTRVSEGGPAEIAGLQIGDKIMQVNGWDMTMVTHDQARKRLTKRSEEVVRLLVTRQSLQKAVQQSMLS
Take B2: the Kd in the experiment with v127 is 0.13 nM; with v144 it was 0.241 nM.
